Laboratory results reported in paper PMC6868365 (Nucleic Acids Research, 2019).
Numbering of substitutions follows the chain as printed.

Experiments:
[1] = target: T1, DnaA Q208A (Escherichia coli, UniProt P03004 1-467, Q208A); experiment: native gel or EMSA
T1 sequence (looked up): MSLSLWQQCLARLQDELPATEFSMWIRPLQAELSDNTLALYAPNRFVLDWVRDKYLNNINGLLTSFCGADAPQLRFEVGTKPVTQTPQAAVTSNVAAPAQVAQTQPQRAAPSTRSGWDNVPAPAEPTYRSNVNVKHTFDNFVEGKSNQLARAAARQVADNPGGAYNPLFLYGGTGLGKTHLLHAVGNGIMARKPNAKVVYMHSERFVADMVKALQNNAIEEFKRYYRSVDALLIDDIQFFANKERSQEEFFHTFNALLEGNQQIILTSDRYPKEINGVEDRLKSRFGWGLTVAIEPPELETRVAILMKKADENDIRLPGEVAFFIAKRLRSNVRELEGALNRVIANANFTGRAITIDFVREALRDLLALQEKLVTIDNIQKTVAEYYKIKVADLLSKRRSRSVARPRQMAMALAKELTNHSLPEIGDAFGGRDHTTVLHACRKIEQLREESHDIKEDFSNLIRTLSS

[2] = target: T2, DnaA L290A (Escherichia coli, UniProt P03004 1-467, L290A); experiment: native gel or EMSA
T2 sequence (looked up): T1 sequence (looked up) with A208Q, L290A

binding result [1]: binds
binding result [2]: binds
B1: DiaA (DnaA initiator-associating protein) (natural protein, Escherichia coli, UniProt P66817 1-196, looked up)
chain: MQERIKACFTESIQTQIAAAEALPDAISRAAMTLVQSLLNGNKILCCGNGTSAANAQHFAASMINRFETERPSLPAIALNTDNVVLTAIANDRLHDEVYAKQVRALGHAGDVLLAISTRGNSRDIVKAVEAAVTRDMTIVALTGYDGGELAGLLGPQDVEIRIPSHRSARIQEMHMLTVNCLCDLIDNTLFPHQDD
